Holding throughout (experiment): fluorescence anisotropy
For data set [1], the target named is T1, MntR wild-type (Bacillus subtilis, UniProt P54512 1-142).
T1 sequence: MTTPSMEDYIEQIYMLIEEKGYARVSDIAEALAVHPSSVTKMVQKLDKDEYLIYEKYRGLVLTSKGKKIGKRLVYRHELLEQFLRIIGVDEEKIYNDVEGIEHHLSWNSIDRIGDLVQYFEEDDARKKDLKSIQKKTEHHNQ

Data set [2] deals with T2, MntR E11K (Bacillus subtilis, UniProt P54512 1-142, E11K).
T2 sequence: T1 sequence with E11K

In data set [3] the target is T1, MntR wild-type. The source holds these as a separate data set.
Data set [4] addresses T2, MntR E11K. This is another data set of the same source.

Substitutions are numbered along the chain they refer to. Like-named read-outs stand apart in the source and are kept apart here.

B1: mntH operator 21 bp (dsDNA)
DNA 1: GAGTTTCCTTAAGGCAAATTG
DNA 2: CAATTTGCCTTAAGGAAACTC
In the case of B1, the Kd stood at 6.5 ± 0.5 nM with MntR wild-type [1], 2.4 ± 0.1 nM with MntR E11K [2], 5.6 ± 0.8 nM with MntR wild-type [3] and 6.5 ± 1.3 nM with MntR E11K [4].

One may read the Kd as a measure of binding affinity in units of concentration.
